From article PMC6101483, “Investigating mycobacterial topoisomerase I mechanism from the analysis of metal and DNA substrate interactions at the active site”

Target: T1, MtbTOP1-704t (Mycobacterium tuberculosis, UniProt P9WG49 2-704)
T1 sequence: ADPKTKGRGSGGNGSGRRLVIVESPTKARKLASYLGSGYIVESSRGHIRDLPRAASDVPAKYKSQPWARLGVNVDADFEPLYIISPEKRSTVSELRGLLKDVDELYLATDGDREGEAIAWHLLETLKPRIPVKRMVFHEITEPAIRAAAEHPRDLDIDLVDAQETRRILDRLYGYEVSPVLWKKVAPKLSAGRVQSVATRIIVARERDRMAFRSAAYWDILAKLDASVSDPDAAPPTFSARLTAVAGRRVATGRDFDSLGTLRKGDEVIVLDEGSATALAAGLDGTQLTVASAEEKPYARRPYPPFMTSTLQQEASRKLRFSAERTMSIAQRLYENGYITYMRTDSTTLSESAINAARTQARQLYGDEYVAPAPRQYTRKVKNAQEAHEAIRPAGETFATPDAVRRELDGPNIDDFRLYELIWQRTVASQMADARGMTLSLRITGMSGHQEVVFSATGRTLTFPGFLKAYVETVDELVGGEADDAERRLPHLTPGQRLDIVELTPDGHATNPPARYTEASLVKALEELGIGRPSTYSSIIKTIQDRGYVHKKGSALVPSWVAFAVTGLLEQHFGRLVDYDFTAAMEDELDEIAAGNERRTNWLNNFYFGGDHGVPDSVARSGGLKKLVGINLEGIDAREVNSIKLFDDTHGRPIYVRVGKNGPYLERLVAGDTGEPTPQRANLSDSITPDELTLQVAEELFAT
Test: X-ray crystallography; no metal at active site; 2.42 A
Settings: protein: recombinant; tags: His6-Mocr removed by TEV; N-terminal SNA remains; single strand

TTCCGCTTGAC (ssDNA) [MTS2-11]
binding result: binds
